# According to PMC12107432 (Nucleic Acids Research, 2025):
# Positions count from the first letter of the chain named. In names and notes the source's numbering stands. Several values for one entry are separate records, joined by “and”; a condition that tells them apart may be missing. Identical values can stand only once. Like-named read-outs stand apart in the source and are kept apart here.
# T1: YhaM H193A/D194A (Bacillus subtilis, UniProt O07521 1-314, H193A;D194A)
# T1 sequence: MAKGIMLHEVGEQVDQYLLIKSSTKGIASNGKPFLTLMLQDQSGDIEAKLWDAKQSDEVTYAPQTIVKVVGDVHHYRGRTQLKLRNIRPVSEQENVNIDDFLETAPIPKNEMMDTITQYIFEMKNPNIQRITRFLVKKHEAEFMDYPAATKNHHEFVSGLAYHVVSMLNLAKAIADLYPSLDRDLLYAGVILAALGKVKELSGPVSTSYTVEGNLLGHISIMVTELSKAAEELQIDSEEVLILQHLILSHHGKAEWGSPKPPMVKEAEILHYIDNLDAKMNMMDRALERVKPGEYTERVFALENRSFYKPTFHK
# T2: YhaM (BsYhaM) (Bacillus subtilis (strain DK1042 / NCIB …, UniProt O07521 1-314))
# T2 sequence: T1 sequence with A193H, A194D
# T3: YhaM dimers (Bacillus subtilis, UniProt O07521 1-314)
# T3 sequence: T1 sequence with A193H, A194D
# B1: Bli DNA 40-nt (ssDNA)
# DNA: GTTAATTAAGTTTTAACCTTTAAGCTGTAATAGGGAGTTT
# B2: ssDNA loop (ssDNA)
# DNA: TTTTTTTTTTTTTTTTTTTTTTCCCACAACAAGTCCAACGCAAACGGCCACCCCCCCAACAACAATTTTT
# B3: YhaM W51A (Bacillus subtilis), OB domain variant (enzyme, UniProt O07521 1-314, looked up)
# chain: T1 sequence with W51A, A193H, A194D
# B4: YhaM H193A/D194A (Bacillus subtilis), HD motif variant (enzyme, UniProt O07521 1-314, looked up)
# chain: T1 sequence
# B5: YhaM Y76A (Bacillus subtilis), OB domain variant (enzyme, UniProt O07521 1-314, looked up)
# chain: T1 sequence with Y76A, A193H, A194D
# Legend:
# [1] = target: YhaM ortholog of Staphylococcus aureus (SaYhaM) (Staphylococcus aureus); assay: SEC
# YhaM H193A/D194A = target: T1, YhaM H193A/D194A; assay: BLI
# YhaM (BsYhaM) = target: T2, YhaM (BsYhaM); assay: BLI
# YhaM dimers = target: T3, YhaM dimers; assay: BLI
# mass photometry [2] = target: the molecule itself; assay: mass photometry
# mass photometry [3] = target: the molecule itself; assay: mass photometry; remark: listed apart in the source
# mass photometry [4] = target: the molecule itself; assay: mass photometry; remark: listed apart in the source
molecule,measurement,setting,value
YhaM ortholog of Staphylococcus aureus (SaYhaM) (enzyme),stoichiometry N,[1],6
B1,binding result,YhaM H193A/D194A,binds
same,binding result,YhaM (BsYhaM),binds
B2,binding result,YhaM dimers,binds
B3,stoichiometry N,mass photometry [2],2
same,stoichiometry N,mass photometry [3],6
B4,stoichiometry N,mass photometry [4],2
same,stoichiometry N,mass photometry [3],4 and 6
B5,stoichiometry N,mass photometry [3],6
